Assay results published in article doi:10.1101/2021.02.01.429088 (bioRxiv, 2021).
Like-named read-outs stand apart in the source and are kept apart here.

Columns and labels:
[1] = biological target: the molecule itself; assay: SEC
[2] = biological target: the molecule itself; assay: SEC; remark: listed apart in the source

Row | Protein | stoichiometry N [1] | stoichiometry N [2]
1 | T3D σ1 Tail-Body (25-291) (domain or fragment, mammalian orthoreovirus T3D (Dearing)) GAMASKGLESRVSALEKTSQIHSDTILRITQGLDDANKRIIALEQSRDDLVASVSDAQLAISRLESSIGALQTVVNGLDSSVTQLGARVGQLETGLAELRVDHDNLVARVDTAERNIGSLTTELSTLTLRVTSIQADFESRISTLERTAVTSAGAPLSIRNNRMTMGLNDGLTLSGNNLAIRLPGNTGLNIQNGGLQFRFNTDQFQIVNNNLTLKTTVFDSINSRIGATEQSYVASAVTPLRLNSSTKVLDMLIDSSTLEINSSGQLTVRS | 3 | –
2 | T3D σ1 Body-Head (170-455), wild type (domain or fragment, mammalian orthoreovirus T3D (Dearing)) GAMAVTSAGAPLSIRNNRMTMGLNDGLTLSGNNLAIRLPGNTGLNIQNGGLQFRFNTDQFQIVNNNLTLKTTVFDSINSRIGATEQSYVASAVTPLRLNSSTKVLDMLIDSSTLEINSSGQLTVRSTSPNLRYPIADVSGGIGMSPNYRFRQSMWIGIVSYSGSGLNWRVQVNSDIFIVDDYIHICLPAFDGFSIADGGDLSLNFVTGLLPPLLTGDTEPAFHNDVVTYGAQTVAIGLSSGGAPQYMSKNLWVEQWQDGVLRLRVEGGGSITHSNSKWPAMTVSYPRSFT | – | 3
3 | T3D σ1 Head (293-455), wild type (domain or fragment, mammalian orthoreovirus T3D (Dearing)) GAMASPNLRYPIADVSGGIGMSPNYRFRQSMWIGIVSYSGSGLNWRVQVNSDIFIVDDYIHICLPAFDGFSIADGGDLSLNFVTGLLPPLLTGDTEPAFHNDVVTYGAQTVAIGLSSGGAPQYMSKNLWVEQWQDGVLRLRVEGGGSITHSNSKWPAMTVSYPRSFT | 3 | –
